Laboratory results from PMC11687654.

Key:
[1] = biological target: TDP-43mutRRM-flag (pcDNA3.1 construct) (UniProt Q13148); test: AlphaScreen or HTRF; proximity AlphaLISA on lysates of co-transfected HEK293FT cells, 72 hr after transfection; anti-FLAG acceptor beads, biotinylated Ataxin-2 antibody and streptavidin donor beads; room temperature
[2] = biological target: TDP-43-flag (pcDNA3.1 construct) (UniProt Q13148); test: as above
Chain of TDP-43-flag (pcDNA3.1 construct) (Q13148 whole entry): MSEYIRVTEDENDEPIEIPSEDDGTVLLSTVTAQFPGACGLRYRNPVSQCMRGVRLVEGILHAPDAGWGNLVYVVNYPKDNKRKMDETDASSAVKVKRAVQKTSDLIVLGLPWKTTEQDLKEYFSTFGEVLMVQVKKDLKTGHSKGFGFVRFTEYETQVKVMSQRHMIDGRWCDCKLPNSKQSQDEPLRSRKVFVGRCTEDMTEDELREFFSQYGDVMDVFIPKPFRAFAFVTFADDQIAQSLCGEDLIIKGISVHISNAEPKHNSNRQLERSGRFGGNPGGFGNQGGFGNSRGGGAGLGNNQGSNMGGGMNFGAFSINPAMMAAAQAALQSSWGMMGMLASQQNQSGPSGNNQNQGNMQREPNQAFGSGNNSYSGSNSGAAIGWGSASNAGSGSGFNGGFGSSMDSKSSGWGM

Chain of Ataxin-2 (ATXN2, pcDNA3.1 construct) (Q99700 whole entry): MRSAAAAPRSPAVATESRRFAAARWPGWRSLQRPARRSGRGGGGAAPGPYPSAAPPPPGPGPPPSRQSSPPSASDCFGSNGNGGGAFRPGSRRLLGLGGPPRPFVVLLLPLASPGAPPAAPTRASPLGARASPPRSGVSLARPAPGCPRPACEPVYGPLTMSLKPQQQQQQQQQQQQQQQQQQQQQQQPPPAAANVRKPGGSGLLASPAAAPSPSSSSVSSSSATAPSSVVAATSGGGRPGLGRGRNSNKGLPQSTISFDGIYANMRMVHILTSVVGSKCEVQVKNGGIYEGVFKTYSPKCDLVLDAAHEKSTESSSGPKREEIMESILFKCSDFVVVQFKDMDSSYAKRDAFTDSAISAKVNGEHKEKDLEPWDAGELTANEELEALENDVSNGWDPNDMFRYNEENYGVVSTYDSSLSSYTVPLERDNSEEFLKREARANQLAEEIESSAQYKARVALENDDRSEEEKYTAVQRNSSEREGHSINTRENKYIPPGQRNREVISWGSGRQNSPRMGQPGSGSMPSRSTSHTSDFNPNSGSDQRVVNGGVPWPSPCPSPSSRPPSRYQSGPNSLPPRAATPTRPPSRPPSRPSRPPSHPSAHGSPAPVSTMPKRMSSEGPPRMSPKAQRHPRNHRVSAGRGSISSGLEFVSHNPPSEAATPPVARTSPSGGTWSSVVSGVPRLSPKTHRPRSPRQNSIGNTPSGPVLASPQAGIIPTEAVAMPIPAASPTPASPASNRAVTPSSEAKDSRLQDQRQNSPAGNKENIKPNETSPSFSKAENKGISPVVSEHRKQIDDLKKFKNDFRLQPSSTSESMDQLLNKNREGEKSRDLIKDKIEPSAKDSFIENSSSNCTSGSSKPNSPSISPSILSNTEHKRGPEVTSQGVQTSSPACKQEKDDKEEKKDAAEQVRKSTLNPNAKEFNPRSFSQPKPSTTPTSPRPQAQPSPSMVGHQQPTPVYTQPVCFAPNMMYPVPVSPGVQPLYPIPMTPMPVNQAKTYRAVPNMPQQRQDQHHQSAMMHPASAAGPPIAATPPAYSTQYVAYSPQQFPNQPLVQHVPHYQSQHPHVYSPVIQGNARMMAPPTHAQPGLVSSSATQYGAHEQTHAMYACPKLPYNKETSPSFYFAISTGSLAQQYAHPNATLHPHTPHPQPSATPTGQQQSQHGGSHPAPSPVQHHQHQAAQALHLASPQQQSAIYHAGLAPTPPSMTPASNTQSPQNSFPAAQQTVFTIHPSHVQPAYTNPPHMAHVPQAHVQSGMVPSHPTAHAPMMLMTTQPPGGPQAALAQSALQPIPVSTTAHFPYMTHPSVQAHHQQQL
Chain of TDP-43mutRRM-flag (pcDNA3.1 construct) (Q13148 whole entry): as the sequence (Q13148 whole entry) above

With “Ataxin-2 (ATXN2, pcDNA3.1 construct) (from UniProt Q99700 1-1313) (natural protein)” the fold increase of the AlphaLISA interaction signal [1] was 2 fold and the fold increase of the AlphaLISA interaction signal [2] was 22 fold.
